Assay: soluble on expression in E. coli; label from the status in PepcDB or PDB records

Sequence	soluble on expression in E. coli
HHHHHHGILMMANRMILNETAWFGRGAVGALTDEVKRRGYQKALIVTDKTLVQCGVVAKVTDKMDAAGLAWAIYDGVVPNPTITVVKEGLGVFQNSGADYLIAIGGGSPQDTCKAIGIISNNPEFADVRSLEGLSPTNKPSVPILAIPTTAGTAAEVTINYVITDEEKRRKFVCVDPHDIPQVAFIDADMMDGMPPALKAATGVDALTHAIEGYITRGAWALTDALHIKAIEIIAGALRGSVAGDKDAGEEMALGQYVAGMGFSNVGLGLVHGMAHPLGAFYNTPHGVANAILLPHVMRYNADFTGEKYRDIARVMGVKVEGMSLEEARNAAVEAVFALNRDVGIPPHLRDVGVRKEDIPALAQAALDDVCTGGNPREATLEDIVELYHTAW	soluble
HHHHHHGSQEAPHFKPGEDPRQPHQEWKLIENMSDEFEGKKIDEKKWQISGQGWIGRAPGLFLAENISLNNGSLQITTTMLPEPIVKNNKTYTHGGGYVGSRNGMTYGYYECEMKANKTFMSSTFWLINEGKDRLGCDKRTTELDIQESVGQITNDADWMKYFDQTMNSNTHSRNIPEGCEYEKGSSKGKAELGGKAYEDFHVYGVWWKSKDEIIFFLDGKMQSKVTPPADFDIEMYLRMVVETYDWNPVPKDGGMTGSKEDRTTTYNWVRSWQLVDSKN	soluble
HHHHHHKVDLGGFAGLFDLKAAGFKDPLLASGTDGVGTKLKIAQLCNKHDTIGQDLVAMCVNDILAQGAEPLFFLDYFSCGKLDLSVTEAVVAGIAKACGKAGCALLGGETAEMPDMYPPGEYDLAGFAVGAMERDQKLPHLERITEGDVVVGIASSGLHSNGFSLVRKIVAKSSLQYSSPAPDGCGDQTLGDLLLTPTRIYSHSLLPVLRSGHVKAFAHITGGGLLENIPRVLPEKLGVDLDAQTWRIPRVFSWLQQEGHLSEEEMARTFNCGVGAVLVVSKEQTEQILRGIQQHKEEAWVIGSVVARAEGSPRVKVKNLIESMQINGSVLKN	soluble
HHHHHHSSGLVPRGSGMKETAAAKFERQHMDSPDLGTDDDDKASSSANECISVKGRIYSILKQIGSGGSSKVFQVLNEKKQIYAIKYVNLEEADNQTLDSYRNEIAYLNKLQQHSDKIIRLYDYEITDQYIYMVMECGNIDLNSWLKKKKSIDPWERKSYWKNMLEAVHTIHQHGIVHSDLKPANFLIVDGMLKLIDFGIANQMQPDTTSVVKDSQVGAVNYMPPEAIKDMSSSRENGKSKSKISPKSDVWSLGCILYYMTYGKTPFQQIINQISKLHAIIDPNHEIEFPDIPEKDLQDVLKCCLKRDPKQRISIPELLAHPYVQIQTHPVNQMAKGTTEEMKYVLGQLVGLNSPNSILKAAKTLYEHYSGGESHNSSSSKTFEKKRGKK	soluble
HHHSSGLTPRGSQMKKIAFGCDHVGFILKHEIVAHLVERGVEVIDKGTWSSERTDYPHYASQVALAVAGGEVDGGILICGTGVGISIAANKFAGIRAVVCSEPYSAQLSRQHNDTNVLAFGSRVVGLELAKMIVDAWLGAQYEGGRHQQRVEAITAIEQRRN	soluble
HKGTLYVVATPLGNLDDMTFRAVNTLRNAGAIACEDTRRTSILLKHFGIEGKRLVSYHSFNEERAVRQVIELLEEGSDVALVTDAGTPAISDPGYTMASAAHAAGLPVV	not soluble
HKPWRAEYAKSSRSSCKTCKSVINKENFRLGKLVQSTHFDGIMPMWNHASCILKKTKQIKSVDDVEGIESLRWEDQQKIRKYVESGAGSNTSTSTGTSTSS	soluble
HKRPVPAKRYDNVTILFSGIVGFNAFCSKHASGEGAMKIVNLLNDLYTRFDTLTDSRKNPFVYKVETVGDKYMTVSGLPEPCIHHARSICHLALDMMEIAGQVQVDGESVQITIGIHTGEVVTGVIGQRMPRYCLFGNTVNLTSRTETTGEKGKINVSEYTYRCLMSPENSDPQFHLEHRGPVSMKGKKEPMQVWFLSRKNTGTEETKQDDDAENLYFQ	soluble
HLEGLGASVLDFTGFAQKFGTVLSYIRLGAKPDTLHQVRIDTGGADAVIGCDMVVSSAPKASAHYRNGTKVVLNRAEMPTGDLVLHRDAQLKIDTREAAIRAVVGTENVSGFDANQTAEQLLGDAVFANVMMLGYAWQQGLVPVSRSALAQAILLNGVAVEKNRLAFAAGRALAADPARLDVESASPE	not soluble
HMSMYAVNAGIAKTTVQILVDHIAHSGWLDEAASAVLLDIVRTPISPELKPVGQDGNISQKTEDLVGPYELHDFFIYHFLHNEYKPSKIYYLAGVAFKGIYTKAEIKKWMMVFFRRFFAQQYKRNCMPDGPKVSCISLSPRGAWRMASDASSALWLDEIAKFETD	not soluble
HPECKKSVEDVNNDLKKFVSINGKKTVTEFHRELGKIMWNNVGMARSEESCKEALKVIPQIREEFWKNVKVSGSGAEFNQQLENAGRVADFLEFAELMTLDALHRNESCGGHFRVEHQMPD	not soluble
HPSIFAATDGHSSRLDVTMGMSYNNRFFASLMYRPTQAVGVSLGMQLGKFYAGYAFEWPTSVLAKASWGSHELLVSYSFPLSNTKNRDAKYKSIRFL	not soluble
HSDPARRGQLSVCDSISEWVTAADKKTAVDMSGGTVTVLEKVPVSKGQLKQYFYETKCNPMGYTKEGCRGIDKRHWNSQCRTTQSYVRALTMDSKKRIGWRFIRIDTSCVCTLTIKRGR	soluble
HTERVGWLSGRIAEEMGMSEVFVTEIQFAAPLHDIGKIGIPDRILLKPGILTPEEFEIMKQHTTIGFRILSRSNSPILQLGAEIALTHHERWDGSGYPRGLKEREIPISGLIVAVADSFDA	not soluble
HVYILGKIPSPLTLIKAFADVRPSFVIMVPLIIEKLYHKAIAPKIKTPLIKFLLRLPVLKKVIHKSIRSKLIESFGGNFRQIIIGGAALNDEVAHFLYRIGFPLTVG	not soluble
IFEDEEDQITKVDSLKKEGNNFFANGEFEKANEKYQEAIASCPPTSTEVQSILLSNSAAALIKLRKWESAVEAASKSIEIGATNEKALERRAFAYSNMSEKYENSIEDYKQLQESLPKRRVELDRKIAEINEKINNRNEAMKADVMEKLKGFGNFCLSPFGLSTDSFEMVPNGNGGFSVQMKGATNKQEGAS	not soluble
IGKVGYRLGFNLSDYKSKITKYDDNATTKLLSSFYPGQVMGEIWGYIADGYYSVDDFEDTSSWKLKEGITSINGYNVRPGDVKFKNLRDDESSTNVITSGDNTFDNPGDRKVIGNTTPRYQYGINLGANYAGFDLNVILQGTGKRDYWISNVLTFPMNGDNFIPLFDGLSDYWMPKDPDNGDWTAVNPNAKYPRLYGNRGNSGSNLRQSDKYLSDASYLRIKNITLSYNLPKKWLSQIFLSQMKAFVSVENVATFTSLPSGIDPERIEWNYPAFRTVSFGINITL	not soluble
IHNSRWIMTPEVKEDCKMRLFCLPFAGGGALAYRSWCRYMPPEIELCAVQLPGRENRIKDEKFYDINLLIDELVLQILPYLDKPFALYGHSMGGLISFELARRIRKVKGLTPKILFFSGSKAPQLYDHTKDISHLPDELFLKAIKSFNGMPDMFWQDRELIEFKLPTLRADFSVLEGYNYYNEEPLECPISALCGENDKIISKKDMEALALQTKNQFKLRMFDGDHFFINTCRSKVLKSIIEDLN	not soluble
IIGGHEAKPHSRPYMAYLQIMDEYSGSKKCGGFLIREDFVLTAAHCSGSKIQVTLGAHNIKEQEKMQQIIPVVKIIPHPAYNSKTISNDIMLLKLKSKAKRSSAVKPLNLPRRNVKVKPGDVCYVAGWGKLGPMGKYSDTLQEVELTVQEDQKCESYLKNYFDKANEICAGDPKIKRASFRGDSGGPLVCKKVAAGIVSYGQNDGSTPRAFTKVSTFLSWIKKTMKKS	soluble
IKELKMSKDEIKREYKEMEGSPEIKSKRRQFHQEIQSRNMRENVKRSSVVVAAATHIAIGILYKRGETPLPLVTFKYTDAQVQTVRKIAEEEGVPILQRIPLARALYWDALVDHYIPAEQIEATAEVLRWLERQNIEKQHSEML	soluble
IKLVIVTGMSGAGKTVAIQSFEDLGYFTIDNMPPTLVPKFLELAAQSGDTSKIAMVVDMRSRLFFREINSILDSLEINDNINFKILFLDATDTELVSRYKETRRSHPLAADGRVLDGISLERELLAPLKSMSQNVVDTSELTPRQLRKVISKEFSNQDSQSSFRIEVMSFGFKYGIPLDADLVFDVRFLPNPYYKPELRDKTGLDTEVYDYVMSFDESDDFYDHLLALIKPILPGYQNEGKSVLTVAIGCTGGQHRSTAFAHRLSEDLKADWTVNESHRDKNKR	not soluble
INLEDPRSFLGRELPGFAQFDTEILLAGQGTDYTNMPAESPPPSKVMEEEREANLAEIEKQQTQSDNAQKDPPKQTTGDKKVVFIYHTHNTESYLPLLKGETDPDMARHSKANVTLVGDMFGQALESQGIGATVNKTDIQSKLNKKGLNYARSYDESRPVVKDALASNKNLQYIIDIHRDSRRKKDTTATIKGKSYARVAFVVGKKSKNFEENYKIASELHKLMEKKYPGLSTGVFSKGSPGDNGVYNQDLTDRALLLEFGGVDNNLEELQRAANAAADVFSEMYWDAEKVNAASGE	not soluble
IPKNTGGVLNSSVLDDAFSFITSYFDIEYGGLGFGAKFPHPFVDLLFLNYSATRGDDLGKKLGLFTLRKMYYGGIFDQVGGGFHRYTVDREWKLPHFEKLLIDNAELIYDYFTYYIATNDIEILDALRNSVDFVLRELYIDGKGFANSLDADSEGMEGKYYTWTEDELKDSLGNDY	not soluble
IQQHSTDIETPTGTMRTYVYRPQASGKFPTIIFYSEIFQQTAPIARTAALMAGHGFVVLVPEVFHELNPIGTVLGYDDAGKDKGNQDKWAKPLEHHDSDTQALVNFIQQQDYCSGKIGTMGVCIGGHLAYRAALNKSVLAAACLYATDIHSGDLPSAEGNDSLTRTKDISAELMMIWGKQDPHIPDEGRMMIHKNLIASGNLFSWHEFNASHAFMRDEGERYDPQLALRVYGMSVELFNRTL	not soluble
ITTKRGEKGKVKINVKAGFDWNTPVKVPEYASGYDWARLANEARLGRYDSPIYTPEELEIIRSGLDTDLYPNIDWRDLMLKSGAPRYYANISFSGGSDNVRYYVSGQYTSEQGRYKTFSSENKYNTNTTYERYNYRANVDMNITKTTVLKVSVGGWLVNRTTPTRSTGDIWEDFAKFTPLSTPRKWSTGQWPRVDGQDTPEYHMTQRGYHTKWESKVETSVKLEQDLKFITPGLKFEGVFAFDTYNENIIKREKKEEVWEAQKYRDENGKLILKRVVNRSPMNQNKEVRGDKRYYFQASLDYNRLFAHAHRVGVFGMVYQEEKTDVNFDSSDLIGSIPRRNLAYSGRFTYAYKDKYLAEFNWGCTGSENFEHGKQFGFFPAVSAGYVISEEAFMKKALPWIDQFKIRASYGEVGNDVLDGRRFPYVSLIDTDDGGSYSFGEFGTNRVQAYRIRTLGTPNLTWEIAKKYDVGVDFSFFNGKISGALDWFLDKRDDIFMQRKHMPLTTGLADQTPMANVGKMKSYGWEGNIGFTQSIGQVNLQLRANFTYQTTDIIDKDEAANELWYKMDKGFQLNQSRGLIALGLFKDQDEIDRSPKQTSNRPILPGDIKYKDVNGDGVINDDDIVPLGYREVPGLQYGVGLSANWRNWNLSVLFQGTGK	not soluble
IVKASTYMGKRRIGALISMERETGMTDYVETGIPMNANLTSELLINTFIPNTPLHDGAVIINNDTILAAACYLPLSENPFISKELGTRHRAALGVSEVTDCLTIVVSEETGHISLTKNGE	soluble
KAKTEDFVKAFQVFDKESTGKVSVGDLRYMLTGLGEKLTDAEVDELLKGVEVDSNGEIDYKKFIEDVLRQ	soluble
KANELKPIPFSQRTTPSILDLRKQQATVTQNKIRTDITRFCYGQEAHLDRALAYLGLSPSDEKRPIVTGLRETELNGAYSLILEFDSPLIPIDIWQQKHAKMTKYFAPNVEVKITQPAENRIELELIKTQ	not soluble

Source: the DeepSol protein solubility set
